Reference: the DeepSol protein solubility set

Experiment: soluble on expression in E. coli; label from the status in PepcDB or PDB records

Soluble on expression in E. coli, soluble:
MSQDFVTLVSKDDKEYEISRSAAMISPTLKAMIEGPFRESKGRIELKQFDSHILEKAVEYLNYNLKYSGVSEDDDEIPEFEIPTEMSLELLLAADYLSI, MNLSNLWQSCLLQLQDQVSASDLSTWLRPLQADVVADNHIVLYASNMFVKGWVETHYLAQIQQICQTLAQNPELRISLKEGVKPAPKIVESTPNTSLRSESAVDFQAESSASVKFESHLNTKHLFDNFVEGKSNQLARAVGQKLAQAPGEPSANPFFLYGGTGLGKTHLLHAIGNGILADKPNARVLYIHANNFMQHMVKAVRDNKMDQFKKFYRSLDALLVDDIQFFAEKEKTQEEFFHIFNSLFETGRQIILTSDRYPKEIEKIEERLKSRFGWGLTTAIEPPDLETRVAILLKKAEEHNMNLPEEVAFFIAQRLRTNVRELEGALNRVKAMQDFKGGDIDIDFVRDTLKDILALQERLVTIENIQKVVAEYYRIKVSDLKSKSRARSVTRPRQIAMALAKELTNRSLPEIGRAFDRDHTTVLNACREVPKFREQDNSIQEDWANLIRTLSALEHHHHHH, MKVVAVGGGTGLSTLLKGLKNIDSFEITAVVSVTDEGGSSGKLRKELNVPPPGDVRNNIVALAKDEDLLAKLMSYRFSEGSFKGHSLGNLIIAALTKIEGSFSEAIRILERVLAIKGRVLPVSEDHARLVARFEDGEEVIGETNIVRKGGKIVEVRLDRPIDALPEVLEAIERADIIIFGPGSLYTSIITNVLVNGVKDAIKKSKAKKIYVCNLMTQPGETTGYRVSDHVKELERYLEQSVDFVLVNTRKPSEEVLERYRKEGSDFVEIDAENIQNTILAEPFLVEIVDPSDGQRKIRHDSVKLADVIERISRW, MKHESTKIPLVIFMHIPKTGGITLRNILDQQYRSEHILRLPQKNKLDNLLQKKGANIKKLQCVYGHHRFGVHEYFQQPFTYITMLRHPVERIISTYYFILQNERNRMHQKVKPLTFEQFVQSTDPDLQVPLTNHQTRYLSGERKPNLNKALQHMDTHFSVVGITELYNESLFIMKKKLGWDHISYQKKNVTKKRKRQTDIGLDTIEIIKRKNPLDLHLYETAKEKLQEHIKRLDSGARKELQQFLQDQNGFGPHGMAGDPLEHHHHHH, SNAMLSANQIKFLRSLRERKYRLREQAFAVEGPKLVGEMLPFYRCRMLVGTAAMLRAVSTPHDAEVVELPESFDFKRISTQTTPQPLMAVFDLPAEPEPVVEGLTLLLDGVQDPGNVGTILRTADWFGIRHVWLGTGSADVFSPKVVQASMGALARVQPTPLKNTVDTLAYFRRQGIPVYGAFLDGQSLYEAPLPNFTEPAILVLGSEGRGISPEVAAEITDRLTIPASGLSVKGHTESLNVAIATAILCSEWRRRS

Soluble on expression in E. coli, not soluble:
MGSDKIHHHHHHLTLMGLSVTDYDSEMPDATEPGTTERSLVELLLAEGPSTRLELQAKLGVSRPTLSSAVNKLLSLGLLQEQGTAAYGAGRNGRPQALLAPNRAMGAAVGIELGKAQVAVTILAIDGTVHAQKVTSTSPGTTLQRRLNIALGSVGTFISSNILNPESVLGVGVGVSGLHPDARPAGGSALVDPPGAKLDKLRTLLAAPVVWDNNTRMATFRHLGGSGLDSPGAVLYVVLSAGVSAGIVDGGEVLRGRGAAGELGHVCLDPEGPVCGCGSRGCLEAYVGVEAVLRSARGKGATVADLEELAAVVQSGDADALAVIGLVGRMLGIGLNNAAMLVDPRRIILTGPLLSLGPALVSAATEELRIRRMAVTLGVPDVVAEIGSPFDSSHGAALTALRRWGPGFMGMLTQNGIATTG, MGSDKIHHHHHHVGAGHPRKELEGKAKATKQQQDLKKLLSGQKHVAFPQQVVALPFDASANLTALVYEPLLPLQYSDYKGAQLITGLRKIHEKNVVHGDISVRNIMQSKQGVAKFIDLNPMDPLSESKKSRDIRYLGKSLLEMKFAKSLEQENHRMLSYIAKHEDIYSKAQSNQAYQELKYNNAWFTYSLTQSGSIEKVPGDMDTFLELLGMEEIIKRDLEKQAGEVFSFDGKFAKFISEQPDPENTDFTAMALYMLEHGQIPNNADGILAKLLRVKQ, MSLAIQMTTKTTYQWPQSKDIYPYRPGRFDAPKHWRYNLRSFLNRGSIRRFEQFINQHPFLIDIFNTHLDYSYPVACRFLDKRFNASQRFHAVCENLLFLPEKLTALSTPLWEKPLSFGEVIPDFEMTLSMTTHQPMEGYWVLELWHKPRNELVYLLTFAKLGDALLIAVVQGPNFEGSKEMVKQLTKLCHGLRPAYLMVETMKSLTKILGYNKLLGIPQKYQNKSRFIQSKQYTVDYDAIFGESGGELKDYWELPLEMDRNLDDIPSKKRSMYRKRYAMLDDLAKVIEEKLGLEGHHHHHH, MSDSDDNAYSDYLGNRRAALQKKRQPVRVCESDDSDDDFDTSGPSPMRKKTRETQLFPDDSDDDECVEVEKETYSQKVRHEIDDVEEAYRRSIYKRETVIHAPVEKNNVISGLLKICEGWDEAAKSGAQPEVEDVKDDSDADESSIAAENFPVTVVILDCESHGNDMKSRHDIFLESTFSEIRRIYATKWGCPVSCVVFSHNGKTIDTYTTPQSLGWRPMTLPHPLIEASKEAGEPAEVFTIENSPDSFTIKVLLASRRKPVQVEAAKDTTIQEILQKVIDAFVEDKEENIPSIESMKVVFDNERIKDVNITCEQLDLEDDDCIEVYF, MAAYKDLTKEELLELKSGLQAQFEEVKARGLKLDMSRGKPAAAQLNLSMEMMNILNSGTDLVCEDGVDCRNYGGLDGIAEAKQLLADMMEVPKDNVIVFGNSSLNVMYDTVARAMTHGIMGSTPWCKLDKVKFLCPVPGYDRHFAITEHFGIEMINVPMTATGPDMDLVEKLVSEDPAIKGIWCVPKYSNPQGITYSDETVYRFANLKPAAEDFRIFWDNAYCVHHLYEDKQDYLLEILMECKKAGNQDMVYKFSSTSKISFPGSGIAAIAASDANLADIRNMMKVQTIGHDKVNQLRHVRFFKDIHGIVEHMKKHADIMRPKFETVINTLERELGGLEIGSWIAPRGGYFISFDAMEGCAKAIVAKAKEAGLVMTGAGATFPYGKDPKDSNIRIAPSYPTPEELAVAAEIFVLSVKLVSIDKLLKNL, MGSDKIHHHHHHVNVAQPEPGSGPTVRRMLLGSQLRRLREAKGISRADAAYKIRGSESKISRIELGRVGFKTRDVEDLLTFYGVEDEAVRDSFLKLAREANEPGWWQQYGDSLPSWFQSYVGMEEAATQLRVYETQFVPGLLQTEDYARAVVTRGGRKKLDDAARHRIATRMRRQERIRKNHNVKLWVIIDEPAVRRPVGTPEVMRAQLEHLYDLSMAPNITLQIVPFHQGVFAAETGSFTILRYPEYDLPDVVYVEQLTSCLFQEKRADVEQYTMTLEWLAVVAERPDQTRKMLQKMIKELEE, MYFMEILTCIKQVPGTTSVEVDETTGVLKRDGVDSKMNPYDLYALETALRIKEDKKANLKVLSMGPPQAKKVIEESFMMGADEGALISDRRFGGADVLATSYTISQGIKKMGKVDLIICGKQTTDGDTAQVGPEVAEFLDIPHVTNVTKLIEVKDESIVVEIDMPNDLQVCEIEYPCLITVEKDIFQPRLPSFKLKLNTKDREIPVYSLDDFEDKNENNYGLNGSPTQVVRIFPPKPNTDKNIVRGNADELSFALVNKLEELKLV, MGSDKIHHHHHHMEKLLTIVVPAYNVEKYIKNCLDSFIDLSVLRSLEILIVDDGSTDSTASLAHTYEQKYPYSFKVLSKENGGHGSTINYAIPRATGKYFKVVDGDDWLDKSLLPQFVQLLKHTHSDVISNDFNLVDDKTKKVTKRRKAVSNSYHYNREWGFAEAVMDPLITIHSMTIRTDVLQKNDIRVDEHCFYEDQEYILYPIPYCTSITFSPLPLYQYRLGRSGQSVDIKMMIKRHDQHLKVLDALFEYNNVHGNLQTYKKQYLERGIAEAVDDEYQIFLAKGNDTRNVEQMKKFDEMLREEHPGVYQACSRKSVWMLRKTGFKIFPMAAWVYSRLRGN, MGSDKIHHHHHHMKVELDVSELAVGMYVVEITQPKNKFQLAEQGWITKQQVIDGFKRKGIEKLLVDSSKRRPQPSEPAKVNQATMDKQAAQLTKTPGLFKQRLSQAKQLFNESKAIQRRLFDDAQAGVPLTLEPVRRVTDQSIEAIFDNPDALACVINIRHKDQYLLEHSVAVSVLMTIFACYLKIDKEIVSELAIGAFLHDVGKIMIPPSILDKPGRLTTEEFEVMKTHANHSIRIIENTPNISPLSLEVARLHHEKLNGKGYPFGVSAEAISRFGRMIAICDIFDALTANRCYKAGYPQVKAFSILRALGENNELDAELVDHFIKCMGVYPVGSLVQLESNRLAIVESHNHQDPIRPKVKPFYSLNPNHFEISANIDLAAMRDDIIVKNVRADDFDLDMDEIIEFLSHEG
